This is an account of results in publication PMC11624282, “PARP1 condensates differentially partition DNA repair proteins and enhance DNA ligation”.

One data set addresses PARP1 (Homo sapiens, UniProt P09874 1-1014). In words: single-molecule oligo capture on lambda DNA; 5 nM PARP1, 20 nM oligo; 98% of oligos dissociate with 500 µM NAD+; Condensation (DIC, PARP1 truncations): 20 mM Tris pH 7.5, 50 mM NaCl, 7.5 mM MgCl2, 1 mM DTT; DNA curtains: 25-150 mM NaCl tested; temperature not stated. As to conditions: protein: recombinant; tags: none stated after His-SUMO cleavage; label: 3' ATTO647N on S4; blunt.

Data set [1] has as its target T1, mCherry-PARP1 (Homo sapiens, UniProt P09874 1-1014). Description: condensation, fluorescence microscopy; 4 µM protein; Condensation (DIC, PARP1 truncations): 20 mM Tris pH 7.5, 50 mM NaCl, 7.5 mM MgCl2, 1 mM DTT; DNA curtains: 25-150 mM NaCl tested; temperature not stated. As to conditions: protein: recombinant; tags: mCherry (pET-SUMO-mCherry-PARP1); dumbbell: two hairpins with a single nick.

Data set [2] addresses T1, mCherry-PARP1. In words: condensation, fluorescence microscopy; 4 µM protein; lost at high salt; reentrant at high DNA; Condensation (DIC, PARP1 truncations): 20 mM Tris pH 7.5, 50 mM NaCl, 7.5 mM MgCl2, 1 mM DTT; DNA curtains: 25-150 mM NaCl tested; temperature not stated. As to conditions: protein: recombinant; tags: mCherry (pET-SUMO-mCherry-PARP1); label: Cy5 at 5' of S10 (labelled version, 10% where stated); three annealed oligos, central nick, blunt ends.

T1 sequence (P09874 whole entry, the tested form may be a part): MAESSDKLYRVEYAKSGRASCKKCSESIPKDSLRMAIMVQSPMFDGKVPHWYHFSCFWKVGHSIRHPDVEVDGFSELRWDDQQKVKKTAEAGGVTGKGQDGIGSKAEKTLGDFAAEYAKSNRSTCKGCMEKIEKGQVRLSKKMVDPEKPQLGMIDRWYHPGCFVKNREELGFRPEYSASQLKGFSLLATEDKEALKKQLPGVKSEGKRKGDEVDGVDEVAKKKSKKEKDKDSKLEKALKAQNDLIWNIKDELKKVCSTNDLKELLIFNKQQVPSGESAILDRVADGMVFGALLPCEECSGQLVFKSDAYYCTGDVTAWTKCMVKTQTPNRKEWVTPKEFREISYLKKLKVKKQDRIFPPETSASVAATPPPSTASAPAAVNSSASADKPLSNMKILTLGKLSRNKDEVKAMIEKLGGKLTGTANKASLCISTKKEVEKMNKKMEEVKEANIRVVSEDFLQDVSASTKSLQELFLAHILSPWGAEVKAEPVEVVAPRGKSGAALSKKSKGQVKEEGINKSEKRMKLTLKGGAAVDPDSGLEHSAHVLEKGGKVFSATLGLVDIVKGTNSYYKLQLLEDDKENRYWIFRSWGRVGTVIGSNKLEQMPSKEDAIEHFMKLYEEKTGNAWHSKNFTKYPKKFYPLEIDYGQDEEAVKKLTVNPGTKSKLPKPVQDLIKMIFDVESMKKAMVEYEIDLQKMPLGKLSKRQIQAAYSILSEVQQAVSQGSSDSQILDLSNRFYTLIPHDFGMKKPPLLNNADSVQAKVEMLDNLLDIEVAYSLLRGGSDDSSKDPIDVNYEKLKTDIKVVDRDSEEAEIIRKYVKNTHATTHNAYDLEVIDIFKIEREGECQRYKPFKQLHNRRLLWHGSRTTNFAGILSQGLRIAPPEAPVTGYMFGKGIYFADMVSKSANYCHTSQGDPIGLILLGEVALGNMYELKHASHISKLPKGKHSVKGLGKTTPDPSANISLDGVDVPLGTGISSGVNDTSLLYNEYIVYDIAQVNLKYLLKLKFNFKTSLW
PARP1, sequence (P09874 whole entry, the tested form may be a part): as above

B1: 60 bp DNA-ATTO647N (dsDNA)
DNA 1: ACGAAGTCTTATGGCAAAACCGATGGACTATGTTTCGGGTAGCACCAGAAGTCTATAACA
DNA 2: TGTTATAGACTTCTGGTGCTACCCGAAACATAGTCCATCGGTTTTGCCATAAGACTTCGT
modifications: 5' BioTEG on S3
Take B1: the binding result in the data set with PARP1 is “binds”.
Turning to GCTGGCTTCGTAAGAAGCCAGCTCGCGGTCAGCTTGCTGACCGCG (structured_DNA, 5'-phosphate) [nicked dumbbell DNA], the binding result with mCherry-PARP1 [1] is “binds”.

B2: triplex DNA (nicked) (dsDNA)
DNA 1: GCTTAGCTTGGAATCGTATCATGTACACTCGTGTGCCGTGTAGACCGTGCC
DNA 2: TGTACATGATACGATTCCAAGCTAAGC
DNA 3: GGCACGGTCTACACGGCACACGAG
modifications: 5'-phosphate on S9
On to B2, for which the binding result with mCherry-PARP1 [2] is given as “binds”.
